Data set [1] is described as follows: Western blot of media, sAPPβ (1A9). As to conditions: glycan lost; control: empty vector (Hyg) cell line.
Data set [2] can be described thus: flow cytometry, cell surface APP, non-permeabilised cells. As to conditions: glycan lost; control: APPWT cell line. A general note: In flow cytometry, cells or beads pass a laser one at a time.

The source of these data is publication PMC6525264.

With “β-Amyloid precursor protein (APP695): APPN467K”, the “other: proteolytic processing” value in data set [1] is on record as “decreases”. Also, in data set [2], the localisation_or_trafficking result is “decreases”.

For the substance “β-Amyloid precursor protein (APP695): APPN496K”, the “other: proteolytic processing” value in data set [1] is “decreases”. Moreover, in data set [2], the localisation_or_trafficking entry is on record as “decreases”.
